The sequences below were run on Escherichia coli TOP10 (assay: shrunken log2 fold change of peptide-encoding DNA abundance (4.5 h post-induction vs induction); higher = less antimicrobial activity (less host growth inhibition)). Conditions: time post-induction: 4.5 h; library: site-saturation at positions 5, 18, 19, 20.
RRIRYRPPRLPRPRPRPHLIPRP was tested, and the “shrunken log2 fold change” value was -0.103.
With RRIRSRPPRLPRPRPRPIWMPRP the “shrunken log2 fold change” value was -0.000641.
In the case of RRIRWRPPRLPRPRPRPVATPRP, the “shrunken log2 fold change” value is reported as 0.991.
In the case of RRIRRRPPRLPRPRPRPAMVPRP, the “shrunken log2 fold change” value is reported as 0.00501.
In the case of RRIRQRPPRLPRPRPRPKEPPRP, the “shrunken log2 fold change” value is reported as 0.0201.
With RRIRQRPPRLPRPRPRPGRVPRP the “shrunken log2 fold change” value was 0.422.
In the case of RRIRIRPPRLPRPRPRPDNEPRP, the “shrunken log2 fold change” value is reported as -0.117.
With RRIRRRPPRLPRPRPRPSCKPRP the “shrunken log2 fold change” value was -0.398.
For RRIRWRPPRLPRPRPRPFSQPRP, the “shrunken log2 fold change” value was -0.0772.
RRIRFRPPRLPRPRPRPHDPPRP was tested, and the “shrunken log2 fold change” value was -0.1.
With RRIRCRPPRLPRPRPRPFPQPRP the “shrunken log2 fold change” value was -0.265.
In the case of RRIRTRPPRLPRPRPRPNHAPRP, the “shrunken log2 fold change” value is reported as 0.176.
RRIRQRPPRLPRPRPRPELCPRP was tested, and the “shrunken log2 fold change” value was 0.177.
RRIRFRPPRLPRPRPRPRRIPRP was tested, and the “shrunken log2 fold change” value was -0.116.
In the case of RRIRMRPPRLPRPRPRPQDKPRP, the “shrunken log2 fold change” value is reported as 0.132.
With RRIRLRPPRLPRPRPRPLWSPRP the “shrunken log2 fold change” value was 0.0537.
With RRIRCRPPRLPRPRPRPDSGPRP the “shrunken log2 fold change” value was 0.0093.
With RRIRNRPPRLPRPRPRPRVEPRP the “shrunken log2 fold change” value was 0.345.
RRIRLRPPRLPRPRPRPKVRPRP was tested, and the “shrunken log2 fold change” value was 0.316.
In the case of RRIRFRPPRLPRPRPRPEMLPRP, the “shrunken log2 fold change” value is reported as 0.0583.
In the case of RRIRFRPPRLPRPRPRPVCVPRP, the “shrunken log2 fold change” value is reported as -0.168.
In the case of RRIRSRPPRLPRPRPRPKTCPRP, the “shrunken log2 fold change” value is reported as -0.0741.
For RRIRIRPPRLPRPRPRPQMRPRP, the “shrunken log2 fold change” value was 0.0729.
For RRIRLRPPRLPRPRPRPNIPPRP, the “shrunken log2 fold change” value was -0.823.
RRIRWRPPRLPRPRPRPWTCPRP was tested, and the “shrunken log2 fold change” value was 0.0612.
For RRIRRRPPRLPRPRPRPLANPRP, the “shrunken log2 fold change” value was 0.42.
RRIRGRPPRLPRPRPRPRCWPRP was tested, and the “shrunken log2 fold change” value was 1.19.
RRIRRRPPRLPRPRPRPDEHPRP was tested, and the “shrunken log2 fold change” value was -0.0368.
With RRIRNRPPRLPRPRPRPQTIPRP the “shrunken log2 fold change” value was -0.194.
For RRIRTRPPRLPRPRPRPGPAPRP, the “shrunken log2 fold change” value was 0.35.
For RRIRSRPPRLPRPRPRPENTPRP, the “shrunken log2 fold change” value was -0.258.
With RRIRPRPPRLPRPRPRPILSPRP the “shrunken log2 fold change” value was -0.038.
For RRIRDRPPRLPRPRPRPQNEPRP, the “shrunken log2 fold change” value was -0.24.
For RRIRMRPPRLPRPRPRPHKYPRP, the “shrunken log2 fold change” value was -0.152.
In the case of RRIRERPPRLPRPRPRPREWPRP, the “shrunken log2 fold change” value is reported as 0.325.
For RRIRHRPPRLPRPRPRPGNYPRP, the “shrunken log2 fold change” value was 0.113.
RRIRERPPRLPRPRPRPNRIPRP was tested, and the “shrunken log2 fold change” value was -0.0288.
With RRIRMRPPRLPRPRPRPVPSPRP the “shrunken log2 fold change” value was 0.588.
RRIRVRPPRLPRPRPRPTAIPRP was tested, and the “shrunken log2 fold change” value was 0.12.
In the case of RRIRYRPPRLPRPRPRPAMKPRP, the “shrunken log2 fold change” value is reported as -0.000923.
RRIRMRPPRLPRPRPRPVRAPRP was tested, and the “shrunken log2 fold change” value was 1.08.
RRIRKRPPRLPRPRPRPAPGPRP was tested, and the “shrunken log2 fold change” value was 0.637.
In the case of RRIRGRPPRLPRPRPRPSAKPRP, the “shrunken log2 fold change” value is reported as 1.12.
In the case of RRIRKRPPRLPRPRPRPYEIPRP, the “shrunken log2 fold change” value is reported as -0.0117.
With RRIRKRPPRLPRPRPRPHNEPRP the “shrunken log2 fold change” value was 0.323.
RRIRGRPPRLPRPRPRPGQAPRP was tested, and the “shrunken log2 fold change” value was 0.353.
For RRIRERPPRLPRPRPRPWSEPRP, the “shrunken log2 fold change” value was -0.398.
For RRIRVRPPRLPRPRPRPMRPPRP, the “shrunken log2 fold change” value was 0.544.
With RRIRGRPPRLPRPRPRPSHLPRP the “shrunken log2 fold change” value was -0.158.
RRIRNRPPRLPRPRPRPDCQPRP was tested, and the “shrunken log2 fold change” value was 0.0461.
With RRIRWRPPRLPRPRPRPLSFPRP the “shrunken log2 fold change” value was -0.0327.
With RRIRNRPPRLPRPRPRPLNPPRP the “shrunken log2 fold change” value was -0.133.
RRIRHRPPRLPRPRPRPIYYPRP was tested, and the “shrunken log2 fold change” value was -0.32.
RRIRRRPPRLPRPRPRPAGSPRP was tested, and the “shrunken log2 fold change” value was 0.384.
In the case of RRIRMRPPRLPRPRPRPSNLPRP, the “shrunken log2 fold change” value is reported as 0.00954.
For RRIRYRPPRLPRPRPRPYDNPRP, the “shrunken log2 fold change” value was -0.0463.
RRIRQRPPRLPRPRPRPKHCPRP was tested, and the “shrunken log2 fold change” value was 0.0753.
In the case of RRIRYRPPRLPRPRPRPYDMPRP, the “shrunken log2 fold change” value is reported as -1.35.
In the case of RRIRCRPPRLPRPRPRPPDDPRP, the “shrunken log2 fold change” value is reported as 0.523.
With RRIRHRPPRLPRPRPRPAHHPRP the “shrunken log2 fold change” value was 0.178.

— the supplement of paper PMC9112550, “Optimization of the antimicrobial peptide Bac7 by deep mutational scanning” (BMC Biology, 2022)
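Further: peptides expressed intracellularly from a pBAD plasmid library in pooled LB shake-flask culture, induced with 0.3% L-arabinose, DNA abundance read by NGS, three biological replicates, DESeq2 with apeglm shrinkage.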
